Test results from the nanobody polyreactivity screen of Harvey et al. (2022).

test: yeast display, Sf9 membrane polyspecificity reagent, FACS + sequencing; frameworks hold sequencing errors
Outline: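 Galactose-induced (36–48 hours) yeast carrying a synthetic nanobody display library were exposed to 10% biotinylated, detergent-solubilized Sf9 membrane reagent at 4 °C for 1 hour. FACS followed streptavidin microbead enrichment, using low and high (top ~1%) gates for expression (anti-HA) and reagent binding (streptavidin). Colony PCR, MiSeq 2 × 250 sequencing and CDR-length filtering followed. Labels for polyreactivity reflect the gate of origin.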

Sequence	polyreactivity (PSR sort gate)
QVQLVESGGGLVQAGGSLRLSCAESGLTFWDYVMGWYRQAPGKEMELVAAISDSGGDTYYADSVKGRFTISRDNAKNTVYLQMNSLKPEDTAVYYCAAEYAEYVLEYYRLYEYWGQGTQVTVSS	high polyreactivity
QVQLVESGGGLVQAGGSLRLSCAASGRTFDDYAMGGYSQAPGKERELVAAISWSGSSTYYADSVKGRFTISRDNAKNTVYLQMNSLKPEDTAVYYCAADSIRTLLTGNTVYIWYGYWGQGNQVTVSS	low polyreactivity
QDQLVESGGGLVQAGGSLRLSCAASGFTFTIYAMGGYRQAPGKEREFVAAISYTDGSTFYVDSVKGRFTISRDYAKNTVYLQMTSLKPEDTAVYYCAKDRPGWVHRRPTGGFDYWGQGTQVTVSS	low polyreactivity
QVQLEESGGGLVQAGGSLRLSCAASGSTFRYYVMGWYRPAPGKERYLVAAITSSGSTNYADSVKGRFTISRDNAKNTVYLQMNSLKPEDTAVYYCAAVYRDRSQKKRIFYYWGQGTQVTVSS	high polyreactivity
QVQLVESGAGLVQAGGSLRLSCAASGSTLVFYTMGWYRQAPGKERELVAAISYSGGRTYYADSVKGRFTISRDNAKNTVYLQMNSLKPEDTAVYYCAAVGRSYNRISQYDYWGQGTQVTVSS	high polyreactivity
QVQLVESGGGLVQAGGSLRLSCAASGRIFAGYAMGWYRQAPGKERELVAAISKRGGSTYYADSVKGRFTISRDKAKNTVYLQMNSLKPEDTAVYYCAADTGYPNGQGQGYQNFGGYYWGQGTQVTVSS	high polyreactivity
QVQLVESGGGLVQAGGSLRLSCAASGSTFYSYAMGWYRQAPGKERELVAAITTSGGSTYYADSVKGRFTISRDNAKNTVYLQMNSLKPEDTAVYYCAAYDLYWYEYWGQGTQVTVSS	low polyreactivity
QVQLVESGGGLVQAGGSLRLSCAACGSIVRDYAMGWYRQAPGKERELVAAIRQSGGRTYYADSVKGRFTISRDNAKNTVYLQMNSLKPDDTAVYYCIARRANYWKKASTQYYYWGQGTQVTVSS	high polyreactivity
QVQHVESGGGLVQAGGSLRLSCAASGIIFPRNAMGRYRQAPGKEREFVAAITLSGGRTYYADSVKGRFTISRDNAKNSVYLQMNSLKPEDTAVYYCAAYGFGPYKGVDYWGQGTQVTVSS	high polyreactivity
QVQLVESGGGLVQAGGSLRLSCAASGRTLYVYAMGWYRQAPGKEREFVAAINSSGDSTYYADSVKGRFTISRDNAKNTVYLQMNSLKPEDTAVYYCAAAGYYGYGYDYWGQGTQVTVSS	low polyreactivity
QLQLEESGGGLVQAGGSLRLSCAAYGSIYYYNGMGWYRQAPAKERELVAAISSSGGRTYYADSVKGRFTISRDNENNTVYLQMNSLKPEDPAVYYCYDSGFGKTGFGYDYWGQGTQVTVSS	low polyreactivity
QVQLVESGGGLVQAGGSLRLSCAASGFIFPWYSMVWSRQAPGKERELVAAISRGGRTNYADSVKGRFTISRDNAKNTVYLQMNSLIPEDTAVYYCAKKYYLSGSRADDSWGQGTQVTVSS	high polyreactivity
QVQLVESGAGLVQAGGSLRLSCAASGSIFSYYVMGWYRQAPGKERELVAAISYSGGRTYYADSVKGSFTISRDNAKYTVYLQMNSLKPEDTAVYFCAASRRVGEVSYYYWGQGTQVTVSS	high polyreactivity
QVQLVESGGGLVQAGGSLRLSCAASGITFSRNAMGWYRQAPGKERELVATITSGGSTNYADSVKGRFTISRDNAKNTVYLQMNSLKPEDTAVYYCAVDYDSYWYGTYVNEYDYWGQGTQVTVSS	low polyreactivity
QVQLVESGGGLVQAGGSLRLSCAACGSTFFPYAMGWYRQAPGKERELVAAITSGGRTKYADSVKGRFTISRDNAKNTVYLQMNSLKPEDTAVYYCAARGLIKEYGGPYRRFGYWGQGTQVTVSS	high polyreactivity
QVQLVESGGGLVQAGGSLRLSCAASGFIFRNYAMGWYRQAPGKERELVAVISQRGGSTYYADSVKGRFTSSRDNAKNTVYVQMNSLKPEDTAVYYGAKRKDYNRRGYDYWGQGTQVTVSS	high polyreactivity
QVQLVESGGGVVQAGGSLRLSCAASGRIFDIYDMGWYRQAPGKERELVAAITSGRNTYYADSVKGRFTISRDNAKNTVYLQMNSLKPEDTAVSYCAAYSYPPLLWSYDYWGQGTQVTVSS	low polyreactivity
QVQLVESGGGLLQAGGSLRLSCAASGFTFQYNAMGWYRQAPGKERELVAAISRSGTSTYYADSVKGRFTISRDNAKNTVYLQMNSLKPEDTGVYYCNAYYLSGSVYWTGDIYDYWGQGTQVTVSS	high polyreactivity
QVQLVESGGGLVQAGGSLRLSCAASGYTFTRNAMGWYRQAPGKERELVATISGSGGGTYYADSVKGRFTISRDNAKNTVYLQMNSLKPEDTAVNYCNARRWFYWQGTARYDYWGQGTQVTVSS	low polyreactivity
QVQLVESGGGLVQAGGSLRLSCAASGSILGYYAMGWYRQAPGKERELVAAISWSGGRTYYADSVKGRFTISRDNAKNTVYLQMNSLKPEDTAVYYCNARWRSGPRAYDYWGQGTQVTVSS	high polyreactivity
QVQLVESGGGLVQAGGSLRLSCAASGSIFNYYAMGWYRQAPGKERELVAAITTSGGNTYYADSVKGRFTISRDNAKNTVYLQMNSLKPEDTAVYYCNTVYAGAAWYQYGYWGQGTQVTVSS	low polyreactivity
QVQLVESGGGLVQAGGSLRLSCAASGLTFDPYAMGWYRQAPGKEREFVATITTSGDSTYYADSVKGRFTISRDNAKNTVYLQMNSLTPEDTAVYYCNTQSRTLGWPLDYWGQGTQVTVSS	high polyreactivity

Sequence	polyreactivity (PSR sort gate)
QVQLVESGGGLVQAGGSLRLSCAASGNTFKYYAMGWYRQAPGKERELVAAISYSGGSTYYADSVKGRFTISRDNAKNTVYFQMNSLKPEDTAVYYCAADLDSERYFLGQGTQVTVSS	low polyreactivity
QVQLVESGGGLVQAGGSLRLSCAASGTFYTNAMGWYRPAPGKERELVAAITSGGSTYYADSVKGRFTISRDNAKNTVYLQMNSLKPEDTAVYYCAADPVSHGYDIDYDYWGQGTQVTVSS	low polyreactivity
QVQLVESGGGLVQAGGSLRLSCAASGRTFGAYTMGGYRQAPGKDRELVAAISSGTRTNYADSVKGRFTISRDNAKNTVYLQMNSLIPEDTAVYYCAATVLGHNRVYYWGQGTQVTVSS	low polyreactivity
QVQLVESGGGLVQAGGSLRLSCAASGRIFGINAMGWYRQAPGKERELVAAISWRSGSTYYADSVKGRFTISRDNAKNTVYLQMNSLKPEDTAVYYCAAKQDQDYYWGQGTQVTVSS	low polyreactivity
QVQLVESGGGLVQAGGSLRLSCASSGRIFPYYAMGRYRQAPGKERDLVAAITSVGSTNYADSVKGRFTISRDNAKNTVYLQINSLKPEDTAVYYCAAESTEGTSGDYDYWAQGTQVTVSS	low polyreactivity
QVQLVESGGGLVQAGGSLRLSCAASGFIFKPYAMGWYRQAPWKERELVAAITVNGGTTYYADSVKGRFTISRDNAKNTVYLQMNSLKPEDTAVYYCNRGRPGGPSWYHYDYWGQGTQVTVSS	high polyreactivity
QVQLVESGGGIVQAGGSLRLSCAASGRIIRYYTMGWYRQAPGKERELVAAIRQRGGSTYYADSVKGRFTISRDNAKNTVYLHMNSLKREDTAVYYCNAVRRTTYDYWGQGTQVTVSS	high polyreactivity
QVQLVESGGGIVQAGGSLRLSCAASGRIFQLYGMGWYRQAPGKERECVAAISYGGGSTYYADSVKGRFTISRDIAKNTVYFKMNSLKPEDTAVYYCAAERRFYSLAKYQSMDYWGQGTQVTVSS	low polyreactivity
QVQLVETGGGLVQAGGSLRLSCAASGFIFIHNAMGWYRQAPGKERELVAAISYSGGSTYYADSVKGRFTISRDNEKNTVYLQMNSLKPEDTAVYYCAARGALHHWYRYDDWGQGTQVTVSS	low polyreactivity
QVHLVESVGGLVQAGGSLRLSCAASGSTFIYYAMVRYRQAPGKERELVASISRSGGSTYYADSVKGRFTISRDNAKNTVYLQMNSLKPEDTAFYYCARAYRSSFNYWGQGTQVTVSS	high polyreactivity
QVQLVESGGGLVQAGGSLRLSCAASGSTIRHYAMGWYRQAPGKERELVAAISSGARTYYADSVKGRFTISRDNAKNTVYLQMNSLKPEDTAVYYCAARYNGYAYPYYYWGQGTQVTVSS	high polyreactivity
QVQLVESGGGLVQAGGSLRLSCAASGSTFWATAMGWYRQAPGKERELVAAITTSGASTNYADSVKGRFTISRDNAKNTVYLQMNSLKPEDTAVYYCAADYDSYYWYNYWGQGTQVTVSS	low polyreactivity
QVQLVESGGGLVQAGGSLRLSCAASGIIFEYYAMGWYRQAPGKERELVAAITRGGSTYYADSVKGRFTISRDNAKNTVYLQMNSLKPEDTAVYYCAADRYYYEYEYWGQGTQVTVSS	low polyreactivity
QFQLVESGGGLDQAGGSLRLSCAASGRIFDGYVMGWYRQAPGKDRELVAAISSSGGRTYYADSVKGRFTISRDNAKNTVYLQMNCLKPDDTAVYYCAARYGRYRSVDYWGQGTQVTVSS	high polyreactivity
QVQLVESGGGLVQAGGSLRLSCAASGSTFALYGMGWYRQAPGKERELVAAINSGVSTNYADSVKGRFTISRDNAKNTVYLQMNSLKPEDTAVYYCNADYYIAPYDSWGQGTQVTVSS	low polyreactivity
KVQLVESVGGLVQAGGSLRLSCAASGRIFGVNAMGWYRQAPGKERELVAAIRSGDSTNYADSVKGRFTISRDNAKNTVYLQMNSLKPEDTAVYYCATDLYFDLRYDYWGQGTQVTVSS	low polyreactivity
QVQHVESGGGLVQAGGSLRLSCAASGSIFHVNAMGWYRQAPGKERELVAAISSSGGRTYYADSVKGRFTISRDNAKNTVYLQMNSLKPEDTAVYYCAAASQVRQPPNGGNGYWGQGTQVTVSS	high polyreactivity
QVQLVESGGGLVQAGGSLRLSCAASGFIFDYYAMGWYRQAPGKERELVAGISRRGGSTYYADSVKGRFTISRDNAKNTVYLQMNSLKPEDTAVYYCNADAWRKVPHPGTGGRDYWGQGTQVTVSS	high polyreactivity
QVQLVESGGGLVQAGGSLRLSGAASGSTFQYYAMGWYRQAPGKERELVAAISDGTNTNYADSVKGRFTISRDNAKNTVYLQMNSLKPEDTAVYYCAARFSSIVKYVGIGTDEYDYWGQGTQVTVSS	low polyreactivity
QVQLVESGGGLVQAGGILRLSCAASGNAMGWYRQAPGKERELVATINRSGGRTYYADSVKGRFTISRDNAKNTVYLQMNSLKPEDTAVYYCATEGRWPNASYGDYDYWGQGTQVSVSS	low polyreactivity
QVPLAETGGGLVQAGGSLRLSCASSGSIYRYAMGWYRKEPGKEREFVAANTWNGGSTYYADSVKGRLTRSLDYAKNTVYLPMNSLKPEDTAVYNCAADWSYFRRHFDYWVQGTQVTVSS	high polyreactivity
